From article PMC12544700, “Identification of a Small Secretoneurin Derivative That Inhibits CaMKIIδ Activity” (Journal of Cellular and Molecular Medicine, 2025)

Columns and labels:
[1] = target: biotinylated SN‐db‐short [SN (7–26, L17F, V20F)] (human); experiment: SPR; Biacore X100, room temperature; biotin‐ahx‐SN‐db‐short immobilised on a streptavidin chip (58 RU); His‐CaMKIIδ‐T287D 0.06–1 μM injected, single‐cycle; HEPES running buffer with 2.5 mM Ca2+; 1:1 Langmuir fit; average of three experiments
CaMKIIδ (Homo sapiens) = CaMKIIδ (Homo sapiens) (UniProt Q13557); settings: cited from earlier work
Sequence of CaMKIIδ (Homo sapiens) (Q13557 2-499, stated change not applied): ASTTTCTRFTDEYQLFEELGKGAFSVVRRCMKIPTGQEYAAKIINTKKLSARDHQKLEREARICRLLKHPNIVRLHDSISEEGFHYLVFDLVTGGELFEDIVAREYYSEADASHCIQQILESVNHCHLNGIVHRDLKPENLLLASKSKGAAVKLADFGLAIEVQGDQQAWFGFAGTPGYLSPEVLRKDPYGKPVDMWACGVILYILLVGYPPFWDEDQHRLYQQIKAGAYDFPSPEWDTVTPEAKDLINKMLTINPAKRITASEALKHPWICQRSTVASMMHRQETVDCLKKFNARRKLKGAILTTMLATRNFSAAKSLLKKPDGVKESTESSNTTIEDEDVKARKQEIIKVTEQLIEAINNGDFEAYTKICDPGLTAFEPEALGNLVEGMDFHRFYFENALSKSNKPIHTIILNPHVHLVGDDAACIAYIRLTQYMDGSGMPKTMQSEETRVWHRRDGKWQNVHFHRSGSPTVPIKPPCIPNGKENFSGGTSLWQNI

Sequence of Secretoneurin (P13521 182-214): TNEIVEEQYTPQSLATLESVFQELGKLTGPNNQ

| Kd [1] | koff [1] | kon [1] | Substance | Kd (CaMKIIδ (Homo sapiens)) |
| --- | --- | --- | --- | --- |
| 0.068 µM | 0.00057 s⁻¹ | 14000 M⁻¹ s⁻¹ | recombinant His‐CaMKIIδ‐T287D (species not named for the experiment) (from UniProt P15791 1-533) (enzyme) | – |
| – | – | – | Secretoneurin (from UniProt P13521) | 0.08 µM |
